Results taken from article PMC5503682.

How the values were obtained:
[1] = target: SP6 tailspike protein gp46 (bacteriophage SP6); test: cryo-EM structure
[2] = target: SP6 tailspike protein gp47 (bacteriophage SP6); test: cryo-EM structure

Substance	stoichiometry N [1]	stoichiometry N [2]
SP6 tailspike protein gp46 (natural protein)	3	
SP6 tailspike protein gp47 (natural protein)		3
